Reference: the supplement of paper PMC12783771
± gives the standard deviation of the averaged measurements.

B1: library; numbered along this chain (parent)
chain: MNIQIGELAKRTACPVVTIRFYEQEGLLPPPGRSRGNFRLYGEEHVERLQFIRHCRSLDMPLSDVRTLLSYRKRPDQDCGEVNMLLDEHIRQVESRIGALLELKHHLVELREACSGARPAQSCGILQGLSDCVCDTRGTTAHPSD

Tests used:
[1] = variants of: B1; assay: sfGFP reporter fluorescence (15 h) (µM FITC); higher = higher leak; details: library round: Round 0; ligand: none
In short: (§1)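 Values are endpoint sfGFP fluorescence given as µM FITC equivalents. Fluorescence was read at 485/528 nm on a Synergy Neo2, and FITC standard curves were prepared in 50 mM sodium borate pH 8.5. Reactions of 1 μL combined BL21 Star (DE3) PANOx-SP extract, pPbrR-sfGFP reporter, 30 μg/mL GamS and linear PbrR templates (PCR-made, Echo-normalized to 5 nM), with 1 µM lead chloride, 30 µM zinc acetate or no metal, for 15 hr at 30 °C.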

[2] = variants of: B1; assay: sfGFP reporter fluorescence (15 h) (µM FITC); higher = stronger transcriptional activation; details: library round: Round 0
In short: as §1

| Variant | sfGFP reporter fluorescence [1] | sfGFP reporter fluorescence ([2]; ligand: 1 µM Pb) | sfGFP reporter fluorescence ([2]; ligand: 30 µM Zn) |
| --- | --- | --- | --- |
| N83C | 0.0601 ± 0.0021 | 0.114 ± 0.016 | 0.0649 ± 0.0015 |
| G128V | 0.0647 ± 0.00078 | 0.131 ± 0.011 | 1.54 ± 0.16 |
| K10A | 0.05644 ± 0.00052 | 0.0687 ± 0.0023 | 0.567 ± 0.026 |
| C55H | 0.0585 ± 0.00078 | 0.06139 ± 0.00026 | 0.0574 ± 0.00078 |
| I125Y | 0.059 ± 0.0021 | 0.0588 ± 0.0023 | 0.0552 ± 0.0029 |
| I125P | 0.0559 ± 0.00078 | 0.05791 ± 0.00052 | 0.05351 ± 0.00052 |
| M60L K104V L107C G128I | 1.223 ± 0.006 | 3.59 ± 0.22 | 3.12 ± 0.6 |
| K104R | 0.0621 ± 0.006 | 0.0958 ± 0.024 | 0.946 ± 0.16 |
| K104P | 0.0509 ± 0.0073 | 0.0544 ± 0.0054 | 0.08191 ± 0.00078 |
| K104T | 0.0619 ± 0.0021 | 0.0925 ± 0.015 | 0.865 ± 0.13 |
| D64S | 0.0944 ± 0.0013 | 0.22 ± 0.013 | 3.02 ± 0.097 |
| D64V | 0.177 ± 0.0098 | 0.5072 ± 0.0036 | 3.52 ± 0.1 |
| E112S | 0.0673 ± 0.00078 | 0.1083 ± 0.00078 | 1.9 ± 0.14 |
| E112N | 0.06212 ± 0.00026 | 0.079 ± 0.0029 | 1.04 ± 0.13 |
| E112A | 0.063 ± 0.0021 | 0.0929 ± 0.0039 | 1.31 ± 0.092 |
| G42A | 0.06212 ± 0.00026 | 0.0737 ± 0.0021 | 0.482 ± 0.034 |
| F21P | 0.0619 | 0.0603 ± 0.0018 | 0.0629 ± 0.0018 |
| C14A | 0.0687 ± 0.0018 | 0.0726 ± 0.0015 | 0.317 ± 0.01 |
| R111Y | 0.0566 ± 0.0023 | 0.0651 ± 0.00078 | 0.28 ± 0.029 |
| R74A | 0.0596 ± 0.0013 | 0.0669 ± 0.0065 | 0.369 ± 0.079 |
| L62M | 0.066 ± 0.001 | 0.0962 ± 0.0049 | 0.533 ± 0.033 |
| L62W | 0.0616 ± 0.0042 | 0.0603 ± 0.0034 | 0.0665 ± 0.0013 |
| L62V | 0.0621 ± 0.0018 | 0.08008 ± 0.00078 | 0.396 ± 0.0088 |

| Variant | sfGFP reporter fluorescence [1] | sfGFP reporter fluorescence ([2]; ligand: 1 µM Pb) | sfGFP reporter fluorescence ([2]; ligand: 30 µM Zn) |
| --- | --- | --- | --- |
| L129M | 0.0577 ± 0.00078 | 0.05901 ± 0.00052 | 0.0788 ± 0.0047 |
| D145A | 0.0599 ± 0.0013 | 0.0702 ± 0.0039 | 0.56 ± 0.036 |
| L110P | 0.0594 ± 0.0015 | 0.0581 ± 0.0018 | 0.0575 ± 0.0015 |
| L110A | 0.0727 ± 0.0013 | 0.0698 ± 0.0018 | 0.0729 ± 0.0026 |
| L110N | 0.0579 | 0.05791 ± 0.00052 | 0.0627 |
| R39C | 0.0599 ± 0.0013 | 0.061 ± 0.00078 | 0.057 ± 0.0029 |
| R39N | 0.06102 ± 0.00026 | 0.0597 ± 0.0015 | 0.0605 |
| R39Y | 0.05992 ± 0.00026 | 0.0605 ± 0.0036 | 0.0608 ± 0.0047 |
| R39G | 0.0555 ± 0.00078 | 0.0563 ± 0.0023 | 0.0563 ± 0.0018 |
| P119A | 0.05992 ± 0.00026 | 0.0629 ± 0.0029 | 0.477 ± 0.05 |
| K104V G128I | 0.0826 ± 0.006 | 0.287 ± 0.021 | 1.84 ± 0.44 |
| D135P | 0.0557 ± 0.0036 | 0.0826 ± 0.0049 | 0.672 ± 0.09 |
| L28Q | 0.0638 | 0.0619 ± 0.001 | 0.05901 ± 0.00052 |
| L28R | 0.0629 ± 0.0013 | 0.063 ± 0.0026 | 0.0588 ± 0.0029 |
| L28G | 0.05882 ± 0.00026 | 0.0581 ± 0.00078 | 0.059 ± 0.001 |
| L126G | 0.0539 ± 0.0015 | 0.05571 ± 0.00052 | 0.0502 ± 0.0021 |
| L126E | 0.0594 ± 0.0021 | 0.05772 ± 0.00026 | 0.0557 ± 0.001 |
| L126P | 0.05552 ± 0.00026 | 0.0555 ± 0.0023 | 0.05113 ± 0.00026 |
| L126T | 0.0596 ± 0.0018 | 0.0579 ± 0.0036 | 0.057 ± 0.0029 |
| E23A | 0.0608 ± 0.0015 | 0.05827 ± 0.00052 | 0.104 ± 0.0026 |
| K104V L107C | 0.184 ± 0.0062 | 1.13 ± 0.23 | 2.31 ± 0.5 |
| E43R | 0.0643 ± 0.00078 | 0.111 ± 0.025 | 2.24 ± 0.12 |
| L68C | 0.0678 ± 0.0031 | 0.0874 ± 0.0044 | 0.504 ± 0.017 |

| Variant | sfGFP reporter fluorescence [1] | sfGFP reporter fluorescence ([2]; ligand: 1 µM Pb) | sfGFP reporter fluorescence ([2]; ligand: 30 µM Zn) |
| --- | --- | --- | --- |
| V16R | 0.0671 ± 0.001 | 0.132 ± 0.0057 | 2.03 ± 0.3 |
| V16C | 0.0634 | 0.0861 ± 0.0021 | 0.341 ± 0.081 |
| I90T | 0.0608 ± 0.0021 | 0.07953 ± 0.00052 | 0.595 ± 0.007 |
| I90Q | 0.05974 ± 0.00052 | 0.0737 ± 0.0042 | 0.637 ± 0.052 |
| L69A | 0.0629 ± 0.0018 | 0.0627 ± 0.0021 | 0.2252 ± 0.0013 |
| G6I | 0.05846 ± 0.00026 | 0.0585 ± 0.0023 | 0.0618 ± 0.0018 |
| Q77A | 0.0698 ± 0.0013 | 0.128 ± 0.045 | 1.48 ± 0.31 |
| L58C | 0.05846 ± 0.00026 | 0.05772 ± 0.00026 | 0.06121 ± 0.00052 |
| L58Q | 0.0596 ± 0.0018 | 0.05901 ± 0.00052 | 0.0711 ± 0.0021 |
| H89R | 0.0685 ± 0.0042 | 0.0936 ± 0.0054 | 0.975 ± 0.017 |
| C79K | 0.06011 ± 0.00052 | 0.0614 ± 0.00078 | 0.0548 ± 0.00078 |
| Y41V | 0.059 ± 0.001 | 0.05974 ± 0.00052 | 0.0687 ± 0.0013 |
| P143S | 0.0566 ± 0.0023 | 0.07568 ± 0.00026 | 0.842 ± 0.05 |
| P143M | 0.05736 ± 0.00026 | 0.0799 ± 0.001 | 0.812 ± 0.12 |
| P143N | 0.0568 ± 0.0015 | 0.0718 ± 0.0057 | 0.865 ± 0.12 |
| V82A | 0.06047 ± 0.00052 | 0.057 ± 0.0013 | 0.0786 ± 0.0039 |
| V82Y | 0.0588 ± 0.0034 | 0.05864 ± 0.00052 | 0.0544 ± 0.0013 |
| V82L | 0.0574 ± 0.0034 | 0.0583 ± 0.001 | 0.0724 ± 0.0044 |
| V82E | 0.0568 ± 0.0026 | 0.0586 ± 0.0015 | 0.0541 ± 0.0029 |
| I97K | 0.0607 ± 0.0029 | 0.0597 ± 0.0021 | 0.102 ± 0.006 |
| I97M | 0.0574 ± 0.0023 | 0.057 ± 0.0023 | 0.2807 ± 0.00052 |
| I97Q | 0.057 ± 0.0029 | 0.057 ± 0.0034 | 0.287 ± 0.0088 |
| V46D | 0.0581 ± 0.0034 | 0.0612 ± 0.0015 | 0.0735 ± 0.0013 |

| Variant | sfGFP reporter fluorescence [1] | sfGFP reporter fluorescence ([2]; ligand: 1 µM Pb) | sfGFP reporter fluorescence ([2]; ligand: 30 µM Zn) |
| --- | --- | --- | --- |
| K73A | 0.0621 ± 0.0013 | 0.0676 ± 0.007 | 0.42 ± 0.15 |
| L107V | 0.0854 ± 0.001 | 0.19 ± 0.022 | 2.03 ± 0.021 |
| V108S | 0.0568 ± 0.0026 | 0.0696 | 0.772 ± 0.061 |
| V108Y | 0.0608 ± 0.0015 | 0.108 ± 0.0021 | 1.18 ± 0.067 |
| P30Q | 0.06395 ± 0.00026 | 0.0925 ± 0.0039 | 1.19 ± 0.066 |
| P30R | 0.06414 ± 0.00052 | 0.088 | 1.15 ± 0.039 |
| R20D | 0.0614 ± 0.0023 | 0.0616 ± 0.0015 | 0.0687 ± 0.0013 |
| R20M | 0.0607 ± 0.00078 | 0.06066 ± 0.00026 | 0.0605 ± 0.0021 |
| L85H | 0.0603 ± 0.0018 | 0.05827 ± 0.00052 | 0.0629 ± 0.00078 |
| L27E | 0.0603 ± 0.0013 | 0.0616 ± 0.0015 | 0.0577 ± 0.00078 |
| E109N | 0.05974 ± 0.00052 | 0.0845 ± 0.0044 | 1.47 ± 0.018 |
| E7S | 0.0625 ± 0.0018 | 0.087 ± 0.0044 | 0.999 ± 0.052 |
| T18A | 0.0612 ± 0.001 | 0.0612 ± 0.0026 | 0.188 ± 0.014 |
| M60K | 0.0605 ± 0.001 | 0.061 ± 0.0018 | 0.0625 ± 0.0029 |
| M60W | 0.135 ± 0.0096 | 0.384 ± 0.026 | 0.926 ± 0.01 |
| I3A | 0.0544 ± 0.0049 | 0.0594 ± 0.001 | 0.339 ± 0.0078 |
| I3K | 0.0608 ± 0.001 | 0.0652 ± 0.0057 | 0.308 ± 0.008 |
| I3T | 0.0597 ± 0.001 | 0.0667 ± 0.0047 | 0.331 ± 0.011 |
| P15H | 0.0667 ± 0.001 | 0.092 ± 0.0052 | 0.706 ± 0.044 |
| M60L P61N L107C G128M | 3.38 ± 0.74 | 4.14 ± 0.57 | 5.5 ± 0.2 |
